Assay in all cases: SEC-MALS
(In general: SEC sorts molecules by how far they enter the pores of the column.)

One data set deals with Trx-EAT-17F (C. elegans) (UniProt S6F527).
Data set [1] deals with MBP-BICD-1 CTF (C. elegans).
The data set “SEC-MALS” concerns the molecule itself.

Usually stoichiometry N stands for the number of molecules, sites or subunits per partner or assembly. With MBP-BICD-1 CTF (domain or fragment), in the data set with Trx-EAT-17F (C. elegans), the stoichiometry N (BICD-1 CTF per EAT-17F (printed as 2:2)) came to 1. This molecule gave a stoichiometry N in data set [1] of 2.

B1: Trx-EAT-17F (natural protein, C. elegans, UniProt S6F527-6 1-396, looked up)
chain: MNSDVHRKLEGAYETIRELSSARRDNIMDTGTQVDDTSMIEHIHSLQQELIEAHTRQADSENTLRDAKLRVSELEMANKRLLENEPSEDVAGLQEELISVKMREAESSLALKEMRQRLAELEQHWAKYVHVRAFDPSSASIEKESTSEAHSTQQQPSPPLTSARARLAKITASLIGGSTEETDNCISVRELEDQLMGVRIKEADTLAELKEMRQKVMELETQNHVCTNQLKRQDEEMKRVREDSEVLVKKRKELEDQLKDEKEKLDNKESEFNEGRINDRLKYSEAMQTIQDLQSSISQLELKKAEKWTQNQLRGSSVCDLDEESNSHGSICSNVDHLSLASDEMNALLADMTVRIPTLDDLAEEGSATETDELRPKELNDGNDTTDSGVQLSDSH
On to B1, for which, in the data set “SEC-MALS”, the “stoichiometry N” value was 2.
